Earlier results as cited in paper PMC7948954.

What was measured:
[1] = biological target: DREB2a (Arabidopsis thaliana) (UniProt O82132)
[2] = biological target: Col10 (Arabidopsis thaliana) (UniProt Q9LUA9)
[3] = biological target: ANAC013 (Arabidopsis thaliana) (UniProt F4IED2)
[4] = biological target: ANAC087 (Arabidopsis thaliana) (UniProt Q9FK44)
[5] = biological target: STO (Arabidopsis thaliana) (UniProt Q96288)
Pf1 = Pf1 (UniProt Q96QT6)
Mad1 = Mad1 (UniProt Q05195)
SAP30 = SAP30 (UniProt O88574)
UniProt O88574, sequence (O88574 130-220): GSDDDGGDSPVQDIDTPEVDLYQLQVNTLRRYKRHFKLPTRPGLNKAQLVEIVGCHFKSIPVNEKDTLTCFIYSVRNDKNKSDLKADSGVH

UniProt Q96QT6, sequence (Q96QT6 202-241): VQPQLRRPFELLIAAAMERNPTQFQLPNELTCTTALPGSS
UniProt Q9FK44, sequence (Q9FK44 whole entry): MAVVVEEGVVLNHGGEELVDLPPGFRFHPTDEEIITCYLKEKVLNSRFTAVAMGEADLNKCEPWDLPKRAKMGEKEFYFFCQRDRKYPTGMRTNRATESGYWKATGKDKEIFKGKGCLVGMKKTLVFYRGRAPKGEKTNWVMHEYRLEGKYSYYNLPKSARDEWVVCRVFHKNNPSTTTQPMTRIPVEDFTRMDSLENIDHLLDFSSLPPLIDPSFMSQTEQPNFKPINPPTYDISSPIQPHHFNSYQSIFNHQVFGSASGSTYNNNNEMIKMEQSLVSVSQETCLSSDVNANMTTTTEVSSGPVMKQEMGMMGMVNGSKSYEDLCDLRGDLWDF
UniProt Q96288, sequence (Q96288 whole entry): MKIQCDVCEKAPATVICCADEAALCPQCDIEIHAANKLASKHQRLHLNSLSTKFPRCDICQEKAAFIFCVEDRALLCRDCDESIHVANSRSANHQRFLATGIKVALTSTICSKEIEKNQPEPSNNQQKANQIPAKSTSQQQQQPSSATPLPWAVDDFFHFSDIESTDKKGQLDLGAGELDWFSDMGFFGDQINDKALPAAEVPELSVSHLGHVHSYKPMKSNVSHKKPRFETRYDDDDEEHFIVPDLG
UniProt F4IED2, sequence (F4IED2 whole entry): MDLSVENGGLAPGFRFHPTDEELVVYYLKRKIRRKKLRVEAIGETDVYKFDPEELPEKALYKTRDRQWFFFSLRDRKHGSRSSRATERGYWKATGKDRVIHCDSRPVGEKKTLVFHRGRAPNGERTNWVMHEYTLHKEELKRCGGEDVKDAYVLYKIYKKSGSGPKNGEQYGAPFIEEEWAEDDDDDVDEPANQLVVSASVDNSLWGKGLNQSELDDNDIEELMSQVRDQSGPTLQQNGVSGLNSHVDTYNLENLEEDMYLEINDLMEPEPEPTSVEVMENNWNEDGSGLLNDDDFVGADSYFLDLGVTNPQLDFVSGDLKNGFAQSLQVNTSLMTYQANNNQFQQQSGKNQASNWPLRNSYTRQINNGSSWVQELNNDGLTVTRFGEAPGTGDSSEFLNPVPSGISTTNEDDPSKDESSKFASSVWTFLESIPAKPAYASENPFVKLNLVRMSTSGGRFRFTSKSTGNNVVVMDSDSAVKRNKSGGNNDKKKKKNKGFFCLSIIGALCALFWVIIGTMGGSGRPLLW
UniProt O82132, sequence (O82132 whole entry): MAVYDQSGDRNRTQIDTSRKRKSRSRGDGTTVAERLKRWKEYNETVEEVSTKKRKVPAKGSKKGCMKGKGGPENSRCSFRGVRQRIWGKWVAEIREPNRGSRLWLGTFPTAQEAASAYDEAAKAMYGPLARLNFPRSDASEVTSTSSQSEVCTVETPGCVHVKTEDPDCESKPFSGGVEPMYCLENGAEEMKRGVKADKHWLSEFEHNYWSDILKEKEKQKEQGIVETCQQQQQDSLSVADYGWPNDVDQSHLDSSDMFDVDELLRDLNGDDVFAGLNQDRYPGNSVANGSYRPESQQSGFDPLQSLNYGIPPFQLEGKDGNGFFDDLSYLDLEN
UniProt Q9LUA9, sequence (Q9LUA9 whole entry): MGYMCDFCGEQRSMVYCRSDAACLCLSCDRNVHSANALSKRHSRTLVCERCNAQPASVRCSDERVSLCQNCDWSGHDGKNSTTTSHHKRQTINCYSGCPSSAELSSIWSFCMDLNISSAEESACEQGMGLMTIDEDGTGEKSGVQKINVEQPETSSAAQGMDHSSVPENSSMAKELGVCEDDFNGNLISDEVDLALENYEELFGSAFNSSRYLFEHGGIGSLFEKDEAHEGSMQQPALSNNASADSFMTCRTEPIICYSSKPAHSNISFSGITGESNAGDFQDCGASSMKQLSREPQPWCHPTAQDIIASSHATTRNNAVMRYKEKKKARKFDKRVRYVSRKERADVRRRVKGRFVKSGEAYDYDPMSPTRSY
UniProt Q05195, sequence (Q05195 5-24): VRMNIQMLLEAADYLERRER

Substance: RCD1 RST (from UniProt Q8RY59)
- Kd [1]: 16 nM
- Kd [2]: 418 nM
- Kd [3]: 9 nM
- Kd [4]: 1800 nM
- Kd [5]: 90 nM

Substance: Sin3 PAH2 (from UniProt Q60520)
- Kd (Pf1): 2000 nM
- Kd (Mad1): 50 nM

Substance: Sin3a PAH3 (from UniProt Q60520)
- Kd (SAP30): 9 nM
